# Reference: paper PMC9482650, “Quantitative fragmentomics allow affinity mapping of interactomes” (Nature Communications, 2022)
# T1: DFNB31_2, Q9P202
# T1 sequence (Q9P202 274-371, limits assumed, looked up): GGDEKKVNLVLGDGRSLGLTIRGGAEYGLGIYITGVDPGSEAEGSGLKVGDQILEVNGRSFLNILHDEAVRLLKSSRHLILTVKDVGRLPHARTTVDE
# T2: DLG3_2, Q92796
# T2 sequence (Q92796 221-321, limits assumed, looked up): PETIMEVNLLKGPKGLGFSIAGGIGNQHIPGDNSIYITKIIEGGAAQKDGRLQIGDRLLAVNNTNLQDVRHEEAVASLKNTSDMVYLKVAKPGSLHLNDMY
# T3: DLG3_3, Q92796
# T3 sequence (Q92796 374-475, limits assumed, looked up): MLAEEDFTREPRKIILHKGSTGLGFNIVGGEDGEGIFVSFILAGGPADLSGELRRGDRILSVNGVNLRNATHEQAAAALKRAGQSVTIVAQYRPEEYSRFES
# T4: GRIP1_2, Q9Y3R0
# T4 sequence (Q9Y3R0 145-248, limits assumed, looked up): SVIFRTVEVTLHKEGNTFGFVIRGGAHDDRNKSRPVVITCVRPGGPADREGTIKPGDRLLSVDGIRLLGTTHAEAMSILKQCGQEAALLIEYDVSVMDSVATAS
# T5: GRIP1_4, Q9Y3R0
# T5 sequence (Q9Y3R0 467-571, limits assumed, looked up): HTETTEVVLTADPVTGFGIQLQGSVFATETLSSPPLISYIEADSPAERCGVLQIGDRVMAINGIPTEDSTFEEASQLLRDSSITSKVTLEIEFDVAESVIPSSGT
# T6: HTRA3, P83110
# T6 sequence (P83110 354-453, limits assumed, looked up): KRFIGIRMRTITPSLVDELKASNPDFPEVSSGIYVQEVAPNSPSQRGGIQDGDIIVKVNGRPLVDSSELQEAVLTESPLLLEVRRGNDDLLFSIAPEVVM
# T7: LIN7B, Q9HAP6
# T7 sequence (Q9HAP6 88-185, limits assumed, looked up): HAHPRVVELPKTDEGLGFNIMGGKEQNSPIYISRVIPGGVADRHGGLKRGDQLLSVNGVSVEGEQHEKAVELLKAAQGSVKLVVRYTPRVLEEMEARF
# T8: MPDZ_10, O75970
# T8 sequence (O75970 1624-1722, limits assumed, looked up): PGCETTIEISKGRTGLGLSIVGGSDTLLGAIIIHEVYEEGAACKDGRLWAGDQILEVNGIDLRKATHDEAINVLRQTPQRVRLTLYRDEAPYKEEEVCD
# T9: PARD3B_1, Q8TEW8
# T9 sequence (Q8TEW8 196-299, limits assumed, looked up): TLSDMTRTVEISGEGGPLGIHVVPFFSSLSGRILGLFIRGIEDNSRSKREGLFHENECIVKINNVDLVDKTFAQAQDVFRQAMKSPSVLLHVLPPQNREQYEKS
# T10: PTPN13_1, Q12923
# T10 sequence (Q12923 1088-1188, limits assumed, looked up): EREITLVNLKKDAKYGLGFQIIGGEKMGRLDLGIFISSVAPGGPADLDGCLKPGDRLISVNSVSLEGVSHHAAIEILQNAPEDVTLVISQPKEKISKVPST
# T11: RHPN1, Q8TCX5
# T11 sequence (Q8TCX5 508-602, limits assumed, looked up): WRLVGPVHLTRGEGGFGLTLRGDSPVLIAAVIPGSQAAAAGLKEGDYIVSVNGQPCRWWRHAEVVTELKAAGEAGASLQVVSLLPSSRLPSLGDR
# T12: SYNJ2BP, P57105
# T12 sequence (P57105 8-110, limits assumed, looked up): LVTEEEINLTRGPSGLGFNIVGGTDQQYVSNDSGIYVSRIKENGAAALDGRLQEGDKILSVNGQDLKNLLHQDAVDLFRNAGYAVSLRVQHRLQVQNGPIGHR
# Target: T1, DFNB31_2, Q9P202
# Test: holdup assay
# Set-up: key: below the threshold = too weak to quantify, mostly under pKd 3.1 to 4
# Settings: plain residues with an end cap or a label only (N-terminal biotin on a linker: ado-ado)
row,Binder,pKd
1,"HLSTRQGTCV [ATRNL1, Q5VV63]",below the threshold
2,"LPPPESESKV [KCNJ9, Q92806]",below the threshold

# Target: DLG2_2, Q15700
# Test: holdup assay
# Set-up: key: below the threshold = too weak to quantify, mostly under pKd 3.1 to 4
# Settings: plain residues with an end cap or a label only (N-terminal biotin on a linker: ado-ado)
# Sequence of DLG2_2, Q15700 (Q15700 189-283): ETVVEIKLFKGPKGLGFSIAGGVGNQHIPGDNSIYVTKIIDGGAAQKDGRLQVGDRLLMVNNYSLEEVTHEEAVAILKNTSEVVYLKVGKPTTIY
row,Binder,pKd
1,"HLSTRQGTCV [ATRNL1, Q5VV63]",4.21
2,"LPPPESESKV [KCNJ9, Q92806]",below the threshold

# Target: T2, DLG3_2, Q92796
# Test: holdup assay
# Set-up: key: below the threshold = too weak to quantify, mostly under pKd 3.1 to 4
# Settings: plain residues with an end cap or a label only (N-terminal biotin on a linker: ado-ado)
row,Binder,pKd
1,"HLSTRQGTCV [ATRNL1, Q5VV63]",4.22
2,"LPPPESESKV [KCNJ9, Q92806]",4.23

# Target: T3, DLG3_3, Q92796
# Test: holdup assay
# Set-up: key: below the threshold = too weak to quantify, mostly under pKd 3.1 to 4
# Settings: plain residues with an end cap or a label only (N-terminal biotin on a linker: ado-ado)
row,Binder,pKd
1,"HLSTRQGTCV [ATRNL1, Q5VV63]",3.85
2,"LPPPESESKV [KCNJ9, Q92806]",below the threshold

# Target: DLG4_2, P78352
# Test: holdup assay
# Set-up: key: below the threshold = too weak to quantify, mostly under pKd 3.1 to 4
# Settings: plain residues with an end cap or a label only (N-terminal biotin on a linker: ado-ado)
# Sequence of DLG4_2, P78352 (P78352 155-259): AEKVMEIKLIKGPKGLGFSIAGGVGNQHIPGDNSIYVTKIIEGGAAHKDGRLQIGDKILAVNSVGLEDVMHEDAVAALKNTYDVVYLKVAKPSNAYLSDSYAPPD
row,Binder,pKd
1,"HLSTRQGTCV [ATRNL1, Q5VV63]",4.43
2,"LPPPESESKV [KCNJ9, Q92806]",3.67

# Target: GORASP2, Q9H8Y8
# Test: holdup assay
# Set-up: key: below the threshold = too weak to quantify, mostly under pKd 3.1 to 4
# Settings: plain residues with an end cap or a label only (N-terminal biotin on a linker: ado-ado)
row,Binder,pKd
1,"HLSTRQGTCV [ATRNL1, Q5VV63]",4.15
2,"LPPPESESKV [KCNJ9, Q92806]",below the threshold

# Target: T4, GRIP1_2, Q9Y3R0
# Test: holdup assay
# Set-up: key: below the threshold = too weak to quantify, mostly under pKd 3.1 to 4
# Settings: plain residues with an end cap or a label only (N-terminal biotin on a linker: ado-ado)
row,Binder,pKd
1,"HLSTRQGTCV [ATRNL1, Q5VV63]",below the threshold
2,"LPPPESESKV [KCNJ9, Q92806]",below the threshold

# Target: T5, GRIP1_4, Q9Y3R0
# Test: holdup assay
# Set-up: key: below the threshold = too weak to quantify, mostly under pKd 3.1 to 4
# Settings: plain residues with an end cap or a label only (N-terminal biotin on a linker: ado-ado)
row,Binder,pKd
1,"HLSTRQGTCV [ATRNL1, Q5VV63]",below the threshold
2,"LPPPESESKV [KCNJ9, Q92806]",below the threshold

# Target: HTRA1, Q92743
# Test: holdup assay
# Set-up: key: below the threshold = too weak to quantify, mostly under pKd 3.1 to 4
# Settings: plain residues with an end cap or a label only (N-terminal biotin on a linker: ado-ado)
# Sequence of HTRA1, Q92743 (Q92743 360-477): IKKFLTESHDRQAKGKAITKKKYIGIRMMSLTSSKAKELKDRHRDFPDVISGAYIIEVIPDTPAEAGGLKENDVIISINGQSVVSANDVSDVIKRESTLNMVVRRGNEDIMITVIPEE
row,Binder,pKd
1,"HLSTRQGTCV [ATRNL1, Q5VV63]",4.91
2,"LPPPESESKV [KCNJ9, Q92806]",below the threshold

# Target: T6, HTRA3, P83110
# Test: holdup assay
# Set-up: key: below the threshold = too weak to quantify, mostly under pKd 3.1 to 4
# Settings: plain residues with an end cap or a label only (N-terminal biotin on a linker: ado-ado)
row,Binder,pKd
1,"HLSTRQGTCV [ATRNL1, Q5VV63]",4.45
2,"LPPPESESKV [KCNJ9, Q92806]",below the threshold

# Target: IL16_1, Q14005
# Test: holdup assay
# Set-up: key: below the threshold = too weak to quantify, mostly under pKd 3.1 to 4
# Settings: plain residues with an end cap or a label only (N-terminal biotin on a linker: ado-ado)
# Sequence of IL16_1, Q14005 (Q14005 210-306): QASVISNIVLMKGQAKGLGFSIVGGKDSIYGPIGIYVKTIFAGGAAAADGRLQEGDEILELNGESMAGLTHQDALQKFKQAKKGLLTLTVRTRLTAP
row,Binder,pKd
1,"HLSTRQGTCV [ATRNL1, Q5VV63]",3.63
2,"LPPPESESKV [KCNJ9, Q92806]",4.11

# Target: Inadl_10, Q8NI35
# Test: holdup assay
# Set-up: key: below the threshold = too weak to quantify, mostly under pKd 3.1 to 4
# Settings: plain residues with an end cap or a label only (N-terminal biotin on a linker: ado-ado)
# Sequence of Inadl_10, Q8NI35 (Q8NI35 1673-1763): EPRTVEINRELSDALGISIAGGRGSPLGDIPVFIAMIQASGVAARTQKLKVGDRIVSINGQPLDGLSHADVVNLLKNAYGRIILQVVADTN
row,Binder,pKd
1,"HLSTRQGTCV [ATRNL1, Q5VV63]",below the threshold
2,"LPPPESESKV [KCNJ9, Q92806]",below the threshold

# Target: Inadl_5, Q8NI35
# Test: holdup assay
# Set-up: key: below the threshold = too weak to quantify, mostly under pKd 3.1 to 4
# Settings: plain residues with an end cap or a label only (N-terminal biotin on a linker: ado-ado)
# Sequence of Inadl_5, Q8NI35 (Q8NI35 673-780): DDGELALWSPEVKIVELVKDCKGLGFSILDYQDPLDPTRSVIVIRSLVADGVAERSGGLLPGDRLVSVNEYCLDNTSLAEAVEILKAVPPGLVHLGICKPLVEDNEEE
row,Binder,pKd
1,"HLSTRQGTCV [ATRNL1, Q5VV63]",4.04
2,"LPPPESESKV [KCNJ9, Q92806]",below the threshold

# Target: Inadl_9, Q8NI35
# Test: holdup assay
# Set-up: key: below the threshold = too weak to quantify, mostly under pKd 3.1 to 4
# Settings: plain residues with an end cap or a label only (N-terminal biotin on a linker: ado-ado)
# Sequence of Inadl_9, Q8NI35 (Q8NI35 1530-1615): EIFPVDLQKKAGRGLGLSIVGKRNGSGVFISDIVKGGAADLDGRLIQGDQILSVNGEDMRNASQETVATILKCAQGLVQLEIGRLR
row,Binder,pKd
1,"HLSTRQGTCV [ATRNL1, Q5VV63]",4.1
2,"LPPPESESKV [KCNJ9, Q92806]",below the threshold

# Target: LAP2, Q96RT1
# Test: holdup assay
# Set-up: key: below the threshold = too weak to quantify, mostly under pKd 3.1 to 4
# Settings: plain residues with an end cap or a label only (N-terminal biotin on a linker: ado-ado)
# Sequence of LAP2, Q96RT1 (Q96RT1 other isoform, or with tags, fused parts or gaps): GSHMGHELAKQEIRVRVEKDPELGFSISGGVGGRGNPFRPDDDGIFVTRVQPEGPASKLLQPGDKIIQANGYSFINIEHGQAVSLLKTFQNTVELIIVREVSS
row,Binder,pKd
1,"HLSTRQGTCV [ATRNL1, Q5VV63]",3.94
2,"LPPPESESKV [KCNJ9, Q92806]",3.85

# Target: T7, LIN7B, Q9HAP6
# Test: holdup assay
# Set-up: key: below the threshold = too weak to quantify, mostly under pKd 3.1 to 4
# Settings: plain residues with an end cap or a label only (N-terminal biotin on a linker: ado-ado)
row,Binder,pKd
1,"HLSTRQGTCV [ATRNL1, Q5VV63]",below the threshold
2,"LPPPESESKV [KCNJ9, Q92806]",3.77

# Target: T8, MPDZ_10, O75970
# Test: holdup assay
# Set-up: key: below the threshold = too weak to quantify, mostly under pKd 3.1 to 4
# Settings: plain residues with an end cap or a label only (N-terminal biotin on a linker: ado-ado)
row,Binder,pKd
1,"HLSTRQGTCV [ATRNL1, Q5VV63]",3.75
2,"LPPPESESKV [KCNJ9, Q92806]",below the threshold

# Target: NHERF4_4, Q86UT5
# Test: holdup assay
# Set-up: key: below the threshold = too weak to quantify, mostly under pKd 3.1 to 4
# Settings: plain residues with an end cap or a label only (N-terminal biotin on a linker: ado-ado)
# Sequence of NHERF4_4, Q86UT5 (Q86UT5 464-550): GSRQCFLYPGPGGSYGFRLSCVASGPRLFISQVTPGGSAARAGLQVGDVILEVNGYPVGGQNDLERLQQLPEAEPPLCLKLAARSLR
row,Binder,pKd
1,"HLSTRQGTCV [ATRNL1, Q5VV63]",3.94
2,"LPPPESESKV [KCNJ9, Q92806]",below the threshold

# Target: NOS1, P29475
# Test: holdup assay
# Set-up: key: below the threshold = too weak to quantify, mostly under pKd 3.1 to 4
# Settings: plain residues with an end cap or a label only (N-terminal biotin on a linker: ado-ado)
# Sequence of NOS1, P29475 (P29475 9-101): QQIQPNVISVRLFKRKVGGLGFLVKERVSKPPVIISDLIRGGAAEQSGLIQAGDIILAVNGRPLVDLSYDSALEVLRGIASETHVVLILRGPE
row,Binder,pKd
1,"HLSTRQGTCV [ATRNL1, Q5VV63]",4.07
2,"LPPPESESKV [KCNJ9, Q92806]",below the threshold

# Target: T9, PARD3B_1, Q8TEW8
# Test: holdup assay
# Set-up: key: below the threshold = too weak to quantify, mostly under pKd 3.1 to 4
# Settings: plain residues with an end cap or a label only (N-terminal biotin on a linker: ado-ado)
row,Binder,pKd
1,"HLSTRQGTCV [ATRNL1, Q5VV63]",below the threshold
2,"LPPPESESKV [KCNJ9, Q92806]",below the threshold

# Target: T10, PTPN13_1, Q12923
# Test: holdup assay
# Set-up: key: below the threshold = too weak to quantify, mostly under pKd 3.1 to 4
# Settings: plain residues with an end cap or a label only (N-terminal biotin on a linker: ado-ado)
row,Binder,pKd
1,"HLSTRQGTCV [ATRNL1, Q5VV63]",below the threshold
2,"LPPPESESKV [KCNJ9, Q92806]",below the threshold

# Target: T11, RHPN1, Q8TCX5
# Test: holdup assay
# Set-up: key: below the threshold = too weak to quantify, mostly under pKd 3.1 to 4
# Settings: plain residues with an end cap or a label only (N-terminal biotin on a linker: ado-ado)
row,Binder,pKd
1,"HLSTRQGTCV [ATRNL1, Q5VV63]",3.65
2,"LPPPESESKV [KCNJ9, Q92806]",4.44

# Target: T12, SYNJ2BP, P57105
# Test: holdup assay
# Set-up: key: below the threshold = too weak to quantify, mostly under pKd 3.1 to 4
# Settings: plain residues with an end cap or a label only (N-terminal biotin on a linker: ado-ado)
row,Binder,pKd
1,"HLSTRQGTCV [ATRNL1, Q5VV63]",5.37
2,"LPPPESESKV [KCNJ9, Q92806]",4.02

# Target: TJP1_3, Q07157
# Test: holdup assay
# Set-up: key: below the threshold = too weak to quantify, mostly under pKd 3.1 to 4
# Settings: plain residues with an end cap or a label only (N-terminal biotin on a linker: ado-ado)
# Sequence of TJP1_3, Q07157 (Q07157 416-512): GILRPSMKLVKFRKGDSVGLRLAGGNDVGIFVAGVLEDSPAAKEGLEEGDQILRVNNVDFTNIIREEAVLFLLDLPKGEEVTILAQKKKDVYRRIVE
row,Binder,pKd
1,"HLSTRQGTCV [ATRNL1, Q5VV63]",below the threshold
2,"LPPPESESKV [KCNJ9, Q92806]",below the threshold

# Target: TJP2_1, Q9UDY2
# Test: holdup assay
# Set-up: key: below the threshold = too weak to quantify, mostly under pKd 3.1 to 4
# Settings: plain residues with an end cap or a label only (N-terminal biotin on a linker: ado-ado)
# Sequence of TJP2_1, Q9UDY2 (Q9UDY2 24-128): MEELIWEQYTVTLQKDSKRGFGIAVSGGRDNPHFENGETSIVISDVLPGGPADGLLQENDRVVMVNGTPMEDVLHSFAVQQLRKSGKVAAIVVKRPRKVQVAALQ
row,Binder,pKd
1,"HLSTRQGTCV [ATRNL1, Q5VV63]",4.35
2,"LPPPESESKV [KCNJ9, Q92806]",below the threshold
